Consider 33 molecules from patent US11155602B2, “Polypeptides targeting HIV fusion” (priority 2015, dated 2021).

The test relates to NL-Rluc virus. Nature of the test: Combinectin potency assay: antiviral EC50, NL-Rluc virus in MT-2 cells, luciferase readout. The test is classed as cell-based, HIV-1. The conditions noted are these: Anti-N17 Adnectin, Table 3. In outline:
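MT-2 cells infected with replication-competent NL-Rluc HIV (nef replaced by Renilla luciferase) at MOI 0.01 for 1 h, then added to threefold-diluted peptides (11 concentrations, triplicate). After 4–5 days, luciferase measured by Dual Luciferase; EC50 relative to no-peptide wells.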

B1: 115 (protein)
chain: MGVSDVPRDLEVVAATPTSLLISWEYKVNNYRYYRITYGETGGNSPVQEFTVPSVLSTATISGLKPGVDYTITVYAVTYGVHSSPISINYRTEIDKPSQHHHHHH
modifications: Adnectin
Turning to B1, the EC50 turned out to be 130 nM.

B2: 301 (protein)
chain: MGHHHHHHGGSVSDVPRDLEVVAATPTSLLISWEYKVHPYRYYRITYGETGGNSPVQEFTVPSVLSTATISGLKPGVDYTITVYAVTHGDDFAPISINYRTEMLI
modifications: Adnectin
Consider B2, for which the EC50 was > 1000 nM.

B3: 286 (protein)
chain: MGHHHHHHGGSVSDVPRDLEVVAATPTSLLISWEYKVAAWRYYRITYGETGGNSPVQEFTVPSVLSTATISGLKPGVDYTITVYAVTYGDDSAPISINYRTEID
modifications: Adnectin
Regarding B3, the EC50 was > 1000 nM.

B4: 310 (protein)
chain: MGHHHHHHGGSVSDVPRDLEVVAATPTSLLISWEYKVHPYRYYRITYGETGGNSPVQEFTVPSVLSTATINGLKPGVDYTITVYAVTYGDDSAPISINYRTEID
modifications: Adnectin
For the molecule B4, the concentration for a half-maximal effect (EC50) turned out to be 62 nM.

B5: 311 (protein)
chain: MGHHHHHHGGSVSDVPRDLEVVAATPTSLLISWEYKVHPYRYYRITYGETGGNSPVQEFTVPSVLSTAEISGLKPGVDYTITVYAVTYGDDSAPISINYRTEID
modifications: Adnectin
Regarding B5, the EC50 stood at 42 nM.

B6: 315 (protein)
chain: MGHHHHHHGGSVSDVPRDLEVVAATPTSLLISWEYKVDRWRYYRITYGETGGNSPVQEFTVPSVLSTATISGLKPGVDYTITVYAVTYGDDSAPISINYRTEID
modifications: Adnectin
B6: the concentration for a half-maximal effect (EC50) is > 1000 nM.

B7: 288 (protein)
chain: MGHHHHHHGGSVSDVPRDLEVVAATTTSLLISWEYKVDYHRYYRITYGETGGNSPVQEFTVPSVLSTATISGLKPGVDYTITVYAVTYGDDSAPISINYRTEID
modifications: Adnectin
On to B7, for which the EC50 is > 1000 nM.

B8: 305 (protein)
chain: MGHHHHHHGGSVSDVPRDLEVVAATPTSLLISWEYKVDPYRYYRITYGETGGNSPVQEFTVPSVLSTATISGLKPGVDYTITVYAVTYGDDSAPISINYRTEID
modifications: Adnectin
For the molecule B8, the EC50 came out at 83 nM.

B9: 313 (protein)
chain: MGHHHHHHGGSVSDVPRDLEVVAATPTSLLISWEYKVAHGRYYRITYGETGGNSPVQEFTVPSVLSTATISGLKPGVDYTITVYAVTYGDDSAPISINYRTEID
modifications: Adnectin
On to B9, for which the EC50 is > 1000 nM.

B10: 296 (protein)
chain: MGHHHHHHGGSVSDVPRDLEVVAATPTSLLISWEYKVATYRYYRITYGETGGNSPVQEFTVPSVLSTATISGLKPGVDYTITVYAVTYGDDSAPISINYRTEID
modifications: Adnectin
In the case of B10, the EC50 was > 1000 nM.

B11: 307 (protein)
chain: MGHHHHHHGGSVSDVPRDLEVVAATPTGLLISWEYKVHPYRYYRITYGETGGNSPVQEFTVPSVLSTATISGLKPGVDYTITVYAVTYGDDSAPISINYRTEID
modifications: Adnectin
On to B11, for which the EC50 is 205 nM.

B12: 289 (protein)
chain: MGHHHHHHGGSVSDVPRDLEVVAATPTSLLISWEYGVHPYRYYRITYGETGGNSPVQEFTVPSVLSTATISGLKPGVDYTITVYAVTYGDDSAPISINYRTEID
modifications: Adnectin
For B12, the EC50 was > 1000 nM.

B13: 297 (protein)
chain: MGHHHHHHGGSVSDVPRDLEVVAATPTSLLISWEYKVDPWRYYRITYGETGGNSPVQEFTVPSVLSTATISGLKPGVDYTITVYAVTYGDDSAPISINYRTEID
modifications: Adnectin
Regarding B13, the concentration for a half-maximal effect (EC50) came out at 30 nM.

B14: 312 (protein)
chain: MGHHHHHHGGSVSDVPRDLEVVAATPTSLLISWEYKVHPYRYYRITYGETGGNSPVQEFLVPSVLSTATISGLKPGVDYTITVYAVTYGDDSAPISINYRTEID
modifications: Adnectin
For B14, the EC50 was 37 nM.

B15: 309 (protein)
chain: MGHHHHHHGGSVSDVPRDLEVVAATPTSLLISWEYKVHPYRYYRITYGETGGNSPVQEFTVPSVLSTATISGLKPGVDYTITVYAVTHGDDSAPISINYRTEID
modifications: Adnectin
With B15, the EC50 is > 1000 nM.

B16: 291 (protein)
chain: MGHHHHHHGGSVSDVPRDLEVVAATPTSLLISWEYKVHPYRYYRITYGETGGNSPVQEFTVPSVLSTATISGLKPGVDYTITVYAVTGGDDSAPISINYRTEID
modifications: Adnectin
For the molecule B16, the half-maximal effective concentration (EC50) is > 1000 nM.

B17: 131 (protein)
chain: MGHHHHHHGGSVSDVPRDLEVVAATPTSLLISWEYKVHPYRYYRITYGETGGNSPVQEFTVPSVLSTATISGLKPGVDYTITVYAVTYGDLSAPISINYRTEID
modifications: Adnectin
On to B17, for which the EC50 was determined as 5 nM.

B18: 304 (protein)
chain: MGHHHHHHGGSVSDVPRDLEVVAATPTSLLISWEYKVAHDRYYRITYGETGGNSPVQEFTVPSVLSTATISGLKPGVDYTITVYAVTYGDDSAPISINYRTEID
modifications: Adnectin
Regarding B18, the half-maximal effective concentration (EC50) is > 1000 nM.

B19: 287 (protein)
chain: MGHHHHHHGGSVSDVPRDLEVVAATPTSLLISWEYKVATWRYYRITYGETGGNSPVQEFTVPSVLSTATISGLKPGVDYTITVYAVTYGDDSAPISINYRTEID
modifications: Adnectin
In the case of B19, the 50% effective concentration (EC50) was > 1000 nM.

B20: 314 (protein)
chain: MGHHHHHHGGSVSDVPRDLEVVAATPTSLLISWEYKVAYKRYYRITYGETGGNSPVQEFTVPSVLSTATISGLKPGVDYTITVYAVTYGDDSAPISINYRTEID
modifications: Adnectin
As to B20, the concentration for a half-maximal effect (EC50) was > 1000 nM.

B21: 295 (protein)
chain: MGHHHHHHGGSVSDVPRDLEVVAATPTSLLISWEYKVAAYRYYRITYGETGGNSPVQEFTVPSVLSTATISGLKPGVDYTITVYAVTYGDDSAPISINYRTEID
modifications: Adnectin
Consider B21, for which the half-maximal effective concentration (EC50) was > 1000 nM.

B22: 302 (protein)
chain: MGHHHHHHGGSVSDVPRDLEVVAATPTSLLISWEYKVHPYRYYRITYGETGGNSPVQEFTVPSVLSSATINGLKPGVDYTITVYAVTYGDDSAPISINYRTEID
modifications: Adnectin
On to B22, for which the concentration giving a half-maximal response (EC50) turned out to be 4 nM.

B23: 308 (protein)
chain: MGHHHHHHGGSVSDVPRDLEVVAATPTSLLISWEYKVNAWRYYRITYGETGGNSPVQEFTVPSVLSTATISGLKPGVDYTITVYAVTYGDDSAPISINYRTEID
modifications: Adnectin
For B23, the EC50 was > 1000 nM.

B24: 293 (protein)
chain: MGHHHHHHGGSVSDVPRDLEVVAATPTSLLISWEYKVHPYRYYRITYGETGGNSPVQEFTVPSVLSTATLRGLKPGVDYTITVYAVTYGDDSAPISINYRTEID
modifications: Adnectin
As for B24, the concentration giving a half-maximal response (EC50) was > 1000 nM.

B25: 303 (protein)
chain: MGHHHHHHGGSVSDVPRDLEVVAATPTSLLISWEYKVHPYRYYRITYGETGGNSPVQEFKVPSVLSTATISGLKPGVDYTITVYAVTYGDDSAPISINYRTEID
modifications: Adnectin
As to B25, the concentration giving a half-maximal response (EC50) is 109 nM.

B26: 133 (protein)
chain: MGHHHHHHGGSVSDVPRDLEVVAATPTSLLISWEYKVHYDRYYRITYGETGGNSPVQEFTVPSVLSTATISGLKPGVDYTITVYAVTYGVDSDPISINYRTEID
modifications: Adnectin
As to B26, the concentration for a half-maximal effect (EC50) was found to be 42 nM.

B27: 292 (protein)
chain: MGHHHHHHGGSVSDVPRDLEVVAATPTSLLISWEYKVHPYRYYRITYGETGGNSPVQEFTVPSVLSTATIHGLKPGVDYTITVYAVTYGDDSAPISINYRTEID
modifications: Adnectin
For B27, the concentration for a half-maximal effect (EC50) turned out to be 52 nM.

B28: 294 (protein)
chain: MGHHHHHHGGSVSDVPRDLEVVAATPTSLLISWEYKVHPYRYYRITYGETGGNSPVQEFTVPSVLSSATISGLKPGVDYTITVYAVTYGDDSAPISINYRTEID
modifications: Adnectin
Turning to B28, the concentration for a half-maximal effect (EC50) was found to be 101 nM.

B29: 316 (protein)
chain: MGHHHHHHGGSVSDVPRDLEVVAATPTSLLISWEYAVHPYRYYRITYGETGGNSPVQEFTVPSVLSTATISGLKPGVDYTITVYAVTYGDDSAPISINYRTEID
modifications: Adnectin
With B29, the EC50 amounted to 331 nM.

B30: 298 (protein)
chain: MGHHHHHHGGSVSDVPRDLEVVAATPTSLLISWEYKVDYQRYYRITYGETGGNSPVQEFTVPSVLSTATISGLKPGVDYTITVYAVTYGDDSAPISINYRTEID
modifications: Adnectin
On to B30, for which the EC50 was > 1000 nM.

B31: 299 (protein)
chain: MGHHHHHHGGSVSDVPRDLEVVAATPTSLLISWKYKVHPYRYYRITYGETGGNSPVQEFTVPSVLSTATISGLKPGVDYTITVYAVTYGDDSAPISINYRTEID
modifications: Adnectin
Take B31: the concentration for a half-maximal effect (EC50) was > 1000 nM.

B32: 306 (protein)
chain: MGHHHHHHGGSVSDVPRDLEVVAATPTSLLISWEYKVDYRRYYRITYGETGGNSPVQEFTVPSVLSTATISGLKPGVDYTITVYAVTYGDDSAPISINYRTEID
modifications: Adnectin
B32: the concentration giving a half-maximal response (EC50) is > 1000 nM.

B33: 132 (protein)
chain: MGHHHHHHGGSVSDVPRDLEVVAATPTSLLISWDAPAVTVEEYYIGYYVEFEPSSYQWFTVPGSKSTATISGLKPGVEYSIYVNAVTGMGMQPEMSLPISINYRTEGS
modifications: Adnectin
Turning to B33, the 50% effective concentration (EC50) worked out at 5 nM.
